The results in this text go back to paper PMC6853982.

The test concerns the target GFP-AtEH1/Pan1 (Arabidopsis) (UniProt Q9LM78). The test can be described thus: FRET or BRET; FRET-FLIM in N. benthamiana leaf cells transiently co-expressing the GFP donor and RFP acceptor fusions; GFP-AtEH1/Pan1 alone as donor control; whole field images. (Bioluminescence resonance energy transfer reports proximity on the nanometre scale.)
Chain of UniProt Q9LM78 (Q9LM78 entry or part of it): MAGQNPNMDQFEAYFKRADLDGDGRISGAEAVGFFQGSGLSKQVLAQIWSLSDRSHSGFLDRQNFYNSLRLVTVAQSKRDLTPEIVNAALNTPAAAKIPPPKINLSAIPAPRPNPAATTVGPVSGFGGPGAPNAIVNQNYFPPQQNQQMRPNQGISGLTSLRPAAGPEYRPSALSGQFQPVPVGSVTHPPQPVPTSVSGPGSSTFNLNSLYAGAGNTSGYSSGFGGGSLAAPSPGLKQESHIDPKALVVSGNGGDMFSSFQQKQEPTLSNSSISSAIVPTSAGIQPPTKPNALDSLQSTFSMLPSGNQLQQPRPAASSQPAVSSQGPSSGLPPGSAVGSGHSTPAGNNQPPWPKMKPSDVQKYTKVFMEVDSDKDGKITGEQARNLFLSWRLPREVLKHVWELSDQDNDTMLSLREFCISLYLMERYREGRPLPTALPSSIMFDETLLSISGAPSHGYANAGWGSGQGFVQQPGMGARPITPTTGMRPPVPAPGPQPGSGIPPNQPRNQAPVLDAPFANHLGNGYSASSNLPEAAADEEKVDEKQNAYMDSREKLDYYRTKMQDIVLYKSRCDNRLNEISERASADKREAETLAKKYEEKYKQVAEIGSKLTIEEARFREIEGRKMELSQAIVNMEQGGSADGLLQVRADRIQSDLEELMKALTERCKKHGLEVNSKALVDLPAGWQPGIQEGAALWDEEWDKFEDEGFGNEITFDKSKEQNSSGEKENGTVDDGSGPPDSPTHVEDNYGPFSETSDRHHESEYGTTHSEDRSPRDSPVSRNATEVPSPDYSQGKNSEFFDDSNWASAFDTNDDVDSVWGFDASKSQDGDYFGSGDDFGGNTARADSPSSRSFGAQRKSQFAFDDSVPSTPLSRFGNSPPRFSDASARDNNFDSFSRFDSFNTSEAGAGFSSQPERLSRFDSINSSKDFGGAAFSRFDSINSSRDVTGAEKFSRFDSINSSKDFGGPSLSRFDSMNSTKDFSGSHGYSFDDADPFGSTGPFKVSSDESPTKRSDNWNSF

In the case of RFP-AtEH2/Pan1 (natural protein), the fluorescence life-time of the GFP donor in the presence of the RFP acceptor came out at 2.45 ns.
